# Laboratory results taken from a protein production outcome set (Wang et al. 2014).
# Assay: label from the status in PepcDB records
sequence,measurement,value
MAKIKFFALGGQDERGKNCYVLEIDNDVFIFNVGSLTPTTAVLGVKKIIPDFSWIQENQARVKGIFIGNAITENLGSLEFLFHTVGFFPIYTSSIGASIIKSKINENKLNIARDKLEIHELKPLETIEISNHSITPFKVSSSLPSSFGFALNTDNGYIVFIDDFIVLNDKNIAFENQLNQIIPKLSDNTLLLITGVGLVGRNSGFTTPKHKSLEQLNRIITPAKGRIFVACYDSNAYSVMTLAQIARMQNRPFIIYSQSFVHLFNTIVRQKLFNNTHLNTISIEEINNSTNSIVVLTSPPDKLYAKLFKIGMNEDERIRYRKSDTFIFMTPKVAGYEEIEAQILDDIARNEVSYYNLGREILSIQASDEDMKFLVSSLKPKYIIPTGGLYRDFINFTMVLKQAGAEQNQILILFNGEVLTIENKKLDSKKNELKLNPKCVDSAGLQEIGASIMFERDQMSESGVVIIIIYFDQKKSEFLNEITYSFLGVSLDVPEKDKLKTKMEELIKKQINDIKDFTTIKKRIGKEISKELKVSIKRAVMNLFTKMTSKAPLILSTIISI,protein production,failed
RPHVVKVYSEDGACRSVEVAAGATARHVCEMLVQRAHALSDETWGLVECHPHLALERGLEDHESVVEVQAAWPVGGDSRFVFRKNFA,protein production,not failed
MPEFTNNPVAECDTVFSEKDGKKIVDFIIYPAKNGDQWVGTAVEAKSMGFGGELKVLVGFDAEGKIYNYSLLSHAETPGLGSKAADWFKEGNKGSIKGMNPGEQPLTVSKDGGQVDAITASTITSRAFLNAVNAAYGAYKGDGGANGTTGASQKAVQKSETAIVDSVVIKLEHHHHHH,protein production,not failed
MIQEKHLTFTINLLVSLFFLTILIIPKGYNYAPIILSAIGLIYFIPLKKKLSFSSEDKKLIFSFLFYFFTFLLSIIINKDGIREIDNPSRLLLFIPLLLLFKNFPIKRKTILYAIPSSALITGCVALFQKFALGYEKPFPETMHIQMGNIAISLATFSIVITLHFFIKKQYKSTLFGFVAIILAIMTSALSGARGGWIGLPVVVGIILFLYKEFINKKLIITLIAIITIGLTALITSPKFGIEKRYNAAKSDIVSYLEKNNRNTSLGARFDMWENALIAIKEAPIFGHGSDGYDEFRHKQVKSKQMAKTTLNFGSLHNQYLESWVKRGLVGFIALILIILTPIFYFIKNLNTHNLETKCICILGIIHIVSHIFYFTSQSFLAHNSGNIFYFSAMLCFIV,protein production,failed
MEKGTLVEFRVQGDRRLGVVDRPDGKTRWFVVDERGQSHSLAPRQITYTVNGNTYKPSEIDRFLEEVKPYLDPSSLEVAWELLVEDGETVTPSQMANLLFSESNSAPSYAAHCLLSDDKLYFKQKGDAYEPRTAAQVADRKHQIEVEALKARGQQEFLTRVEQALQGEAVEWQRHDRQRLEGLEKYGTLLADIVKVGLNYDSLARAYPPPAPVLETMNMLGRPATPQGAFQLLVDLGWWSATENLFLRRSSIPVQFPSKVLEVAQQRLDFPPTDLDTNRLDLTHLKVYTVDDESTTEIDDGLSWEKLPDDRERLWVHIADPTRYLAPEDDLDLEARKRGSTVYLPTGMIPMFPEVLATGPMSLVQGRVCCALSFGVVLDGTGAVQDFTIHPSLIKPTYRLTYEDVDEMLELGVQAEPEIAAIATWATKRKSWRYNQGAISINMPEAMIKVKNDDISIDILDDSRSRQLVAEMMILAGEVAARYGQVHNIPLPFRGQPQPELPPEDELLRLPAGFVRACAMRRCMPKSEMSITPVRHAGLGLDTYTQATSPIRRYSDLLTHFQLKAHLRGEVPPFTAEELKEVMMTVTSTTQELTMVERQTNRYWALEYLRRHPEEIWQVTVLMWLREDSNLALILLEDLGLQLPMVFKRSVRLGEQVLVKVSISDPQKDVIQFQEIIYQEAQTAAN,protein production,failed
MNFGTQIKMIRKENQLTQEQFGNQLNISRQTVSTWENNRYLPDIEMLVEIAKTFNLSLDDLILGNSVVKDKLVNDTKFVKRIRLSILSMIFILIAIVSALLFTSLPSHVSQDGVLQEPWFLVILAFFSLLTGLIIGMVNLVLIFINYYKYARRRK,protein production,failed
MNSIRSSPAIGENRTVYIGSYDGKLYAFNPDGTLKWSYTTGNQITGSATIGADGTICIGSYDRRLYTINPDGTLKWSYTTGNQIFSSAAIGEDGTIYVGSRDNKLYALNPDGTLKWSYTTGNQIFSSAAIGEDLEHHHHHH,protein production,failed
MFLKLFSLFLIIPLVEIYLLIKIGGIIGAFNTVLVILITASLGAYLTKSQGFRVFHQIQDATRQGYMPGNELLHGLFVLIGGFALLTPGFLTDAIGFSMLIPQIREIYVGIAKGIIRKKIEQGNFQMRVYTDFR,protein production,failed
MDYPDLAPRARSWAPHLLGVLRIVAAFLFLQFGTAKLFAFPGPVMPGGGTAPLASLAGIAGAIEAFGGALLLVGLFSRPVAFLLSGEMAVAYFYGHAPQGFWPVLNQGTPAALFAFVFLYLAAAGPGRFSLDGLRGKDAP,protein production,failed
MLCCLRIENFALIDHLELDLQAGLMVLTGETGAGKSIILDALDLALGGKATARLIRAKNDQGDATGERAFIEATFSLTPSIKQWLQSQDIDLLEDETVICSRELSLTRTGLRSRSRVNGIILNQGLMAELRAQLLEITAQGQTVELLIPERQRILLDSYGGSQVQQQRQLVNLAYQTYLKAKQLLESRRTSEQERLQRLDLLQYQLQELRDAHLEDSEELETLQQEGDRLSHVVELQQLSYQAHQILYQNDDPETPAVADLLGEAENLLKEMVDYDTQLNGILD,protein production,failed
MTPVCAWIGSPGAKAQLSFAGRGHSTAKRRRGPAGEPAVPGEALPGARGSLKAHPKPWAAAMWARGCLHHIRVWFSWSQQGSGNGRSGWERLAREARGLWQLWCLPGTPNSSPLQTDM,protein production,failed
MRVDLNSDLGESFGRYKLGLDEEVMKYITSANVACGWHAGDPLVMRKTVRLAKENDVQVGAHPGYPDLMGFGRRYMKLTPEEARNYILYQVGALYAFAKAEGLELQHVKPHGALYNAMVKEEDLARAVIEGILDFDKDLILVTLSNSRVADIAEEMGLKVAHEVFADRAYNPDGTLVPRGRPGAVIEDKEEIAERVISMVKDGGIRAINGEWVDLKVDTICVHGDNPKAVEITSYIRKVLEEEGVKIVPMKEFIR,protein production,not failed
MSSARLVIAGLNGGTGKTILSLGTVRALTNAGHSVKPFKKGPDYIDAEWLGLAAGRAATNLDPFFLDAARLQSLFLHASAGASISIIEGNRGLYDGRDVTGSCSTAELARILDSPVVLAMDCTKMTRTAAAILSGVAAFEPGVKLAGVVLNRTANERHRSMLRQCIEHYTDIPVLGALPRLRDNPIPERHMGLVSDREFAQCAGELDRVAQFVAQHVDVERMAEIARSAQPLASNEPFWPVVAEGDGVRPRIGYVRDAALWFYYEENLEALRQAGADLVELRIIDGDPWPTLDGLYLGGGFPETLASELSACRERLAGIREAALAGLPVYAECGGFMVLGESIVMDGVEYPMSGVFPVQTVFHPKPQGLGYVEAEVVAENPFFPQGMVFRGHEFHYSACRPRDGGAVTHALRLNPGTGMGGGADGLVQANTFAAYTHIFGPAVQGWAERFVRAARGHRDQLNKGTDLSLEHHHHHH,protein production,failed
ANVKLLLPYILKWEGGFVHDPADAGGATNKGVTIATWKRVGYDKDGDGDIDVEDLKLLTDDDVLNRVLKPFYWDRWKADLIESQKVANILVDWVWGSGKYGIVIPQRILGVQADGIVGNKTLQAVNSADPDELFESIFDARREFLEDITARSIKKYEDSIGRKATERELLRHTNKRFLRGWLNRLEDIRKL,protein production,not failed
MTKIIKYTNKDNETLYKFRFYAGLDEITGKQRYIRRQGFKSEKDAKTELLKIEYLVSTNQYFKSVKSGKFGDVLDEWLALHKETVKASTWRYIERRVKNHVRPYFKDMYVDKITLRHCQDFTNKAFAAAPVGFTQIISIVKNTLDYALRLGMIESNPMLYVIKPKKQTTISDKHGNYYNKDELKKFLAAAKDTDLKKYTLFRLLAYSGLRVGECLALTWHDLDYKNNTIAINKTYAKTNNGIKIQTPKTKASIRKVSLDVETIQVLKEWQLNQRKQLLKVGINAMNKQQLIFSNNKNSFIANETVRLAIHQIAKKTGIHPITTHGFRHTHATLLFASGMDIKQVQARLGHSNVQTTLNIYTHAIQDKQDKIGDEFAKYINF,protein production,failed
MRLTIERRKASLYLRGNLPPKLPGGEWKQQRMPLGLDATPLGVKQAEAKAHQVGLELQMDRFRWQDHVELPIDASVMSGLVHLAEERYFSERDRTAKTLSTWQRVYVAHYRQIGLDKPFSLELIHRYLSSKRGFPNALQKAIVACRFLCAVANQPLDARPWQGVATRREVVPRELPTQQQIVDWFDHLKNMQLHHQPEFRAGWIWVYAAIATYGLRPHEAWYLDLDSLRKSKGKRVWLKDGKTGPRWVYPCPPQWVQRFDLCHGGPPPINVRNNQELGTRAGQWAKANGVPPLYGLRHSYAVRLIEYEFPVTVAAKMMGHSPQVHTETYHRWLGDREVQSYAEDLLR,protein production,failed
MRVFLLLFLLFPVLELFLLVRVGMSIGFLWTFLLVVATSMLGLFVMRVAGFATALRARESLARGELPAQEMLEGLMVAVGGGLLLLPGFISDILGVICLLPITRRLLISKVRRRAEDQAMRQRAFADDLQTQANQGPASHRPNAIHQPTREPDVIEGEFEHRDK,protein production,failed
MDCYLNAANSFARILDEYQTYNSLVVAFDFDDTVYDFHKKGRLYADVVTLLRDLKKINCHLICWTGQEDLTFVKNYLMENNIPFDDINENPPFHVSSSKKVYANVYLDDRAGLKQVFGELTQLLQHESIRIKSV,protein production,failed
SQPQQGKQYEVLPVSLQEYNLAPLTEAFALTCGHCRSMEEFVPQIESLTEQKVEKMHVTFNESAQISAIIFYTAVMQLDATPDKAFMADLFAAVQMGADATAEERQQAVEKAFESRNLISPYHLDEAQQEKLFEYITKAESITTRGQINSVPAFIVNGKYQVITGGHDSVEAMAETINYLLKQ,protein production,not failed
MEDWWFSWLSRTNLEPSLIHEYGLSFSQNELEHEDISYFDHEFLQSMGISIAKHRLEILKLARRDRKNSPPLTSRSISRVVTAIKKTRKCLSDHVRAWIRREEESASSRALVLVPKKTSNGIGKWRGGFLKRNKRSVMPSNGNGGLEKQERLLLTNGTPCRIDSFSSPMVFDYSFKDEKLYAQDTYFEDIKWDSMFQNLKPT,protein production,failed
MDDGTGAKRTKATVLQRVSSVLNADAHDATALDGGEVGSVYRVSFHDRPDVAVKVDDSPLGIEAAMLQSLDRDTPLPVPEVLHVEPELLVLSFIRGDGRFDERAERDLARHVAALHDTSADVFGFPFDTLSGPFSQSNPWTDSWIDFFRAQRLLPFATAARNEGALPAGEFDRVQRLAETLDARLVEPATPSLLHGDIHPGNAVVADGTVRAVLDPAIYFGHAEVDLAYVDRLDSIGAAFYDEYRQHRDISAGYFEERRDVYVAFHALENVRFFGEDELPRLERALDRLGM,protein production,failed
ASRPHQWQTDEEGVRTGKCSFPVKYLGHVEVDESRGMHICEDAVKRLKATGKKAVKAVLWVSADGLRVVDEKTKDLIVDQTIEKVSFCAPDRNFDRAFSYICRDGTTRRWICHCFMAVKDTGERLSHAVGCAFAACLERKQKR,protein production,not failed
MAEKVKSGQVFNLLCIFSIFFFLFVLSVNVSADVDSERAVPSEDKTTTVWLTKIKRSGKNYWAKVRETLDRGQSHFFPPNTYFTGKNDAPMGAGENMKEAATRSFEHSKATVEEAARSAAEVVSDTAEAVKEKVKRSVSGGVTQPSEGSEEL,protein production,failed
MSEIDANYRALAQQVADKVAGRVIALDRLPESLLTAYRSLCDELLADRDGRFTRAWDQLPDSASSLFERCVFHGFYLANAWIQLSIVARDISELQDTDEAIAEQEYSGLYVRVAEAALKESVKKLKKARTDRSMYNSMREVMGI,protein production,not failed
